Results from US20210332141A1, “INSULIN-LIKE GROWTH FACTOR-1 RECEPTOR (IGF-1R) BINDING PROTEINS AND METHODS OF USE” (AMGEN INC., priority 2017, published 2021).

Tests used:
[1] = target: murine IGF-1R(ECD)-C3-mFc (murine) (UniProt Q60751); assay: IGEN ligand blocking, competitor human Ru labeled IGF-2 on murine IGF-1R(ECD)-C3-mFc
[2] = target: murine IGF-1R(ECD)-C3-mFc (murine) (UniProt Q60751); assay: IGEN ligand blocking, maximal inhibition of human Ru labeled IGF-1 binding to murine IGF-1R(ECD)-C3-mFc
[3] = target: murine IGF-1R(ECD)-C3-mFc (murine) (UniProt Q60751); assay: IGEN ligand blocking, competitor human Ru labeled IGF-1 on murine IGF-1R(ECD)-C3-mFc
[4] = target: murine IGF-1R(ECD)-C3-mFc (murine) (UniProt Q60751); assay: Biacore, kinetic method, murine IGF-1R(ECD)-C3-mFc
HER-2 = HER-2 (Homo sapiens, UniProt P04626); conditions: cellular; read-out: IC50 against Others: HER-2; cited from earlier work
Sequence of HER-2 (P04626 23-1255, species assumed): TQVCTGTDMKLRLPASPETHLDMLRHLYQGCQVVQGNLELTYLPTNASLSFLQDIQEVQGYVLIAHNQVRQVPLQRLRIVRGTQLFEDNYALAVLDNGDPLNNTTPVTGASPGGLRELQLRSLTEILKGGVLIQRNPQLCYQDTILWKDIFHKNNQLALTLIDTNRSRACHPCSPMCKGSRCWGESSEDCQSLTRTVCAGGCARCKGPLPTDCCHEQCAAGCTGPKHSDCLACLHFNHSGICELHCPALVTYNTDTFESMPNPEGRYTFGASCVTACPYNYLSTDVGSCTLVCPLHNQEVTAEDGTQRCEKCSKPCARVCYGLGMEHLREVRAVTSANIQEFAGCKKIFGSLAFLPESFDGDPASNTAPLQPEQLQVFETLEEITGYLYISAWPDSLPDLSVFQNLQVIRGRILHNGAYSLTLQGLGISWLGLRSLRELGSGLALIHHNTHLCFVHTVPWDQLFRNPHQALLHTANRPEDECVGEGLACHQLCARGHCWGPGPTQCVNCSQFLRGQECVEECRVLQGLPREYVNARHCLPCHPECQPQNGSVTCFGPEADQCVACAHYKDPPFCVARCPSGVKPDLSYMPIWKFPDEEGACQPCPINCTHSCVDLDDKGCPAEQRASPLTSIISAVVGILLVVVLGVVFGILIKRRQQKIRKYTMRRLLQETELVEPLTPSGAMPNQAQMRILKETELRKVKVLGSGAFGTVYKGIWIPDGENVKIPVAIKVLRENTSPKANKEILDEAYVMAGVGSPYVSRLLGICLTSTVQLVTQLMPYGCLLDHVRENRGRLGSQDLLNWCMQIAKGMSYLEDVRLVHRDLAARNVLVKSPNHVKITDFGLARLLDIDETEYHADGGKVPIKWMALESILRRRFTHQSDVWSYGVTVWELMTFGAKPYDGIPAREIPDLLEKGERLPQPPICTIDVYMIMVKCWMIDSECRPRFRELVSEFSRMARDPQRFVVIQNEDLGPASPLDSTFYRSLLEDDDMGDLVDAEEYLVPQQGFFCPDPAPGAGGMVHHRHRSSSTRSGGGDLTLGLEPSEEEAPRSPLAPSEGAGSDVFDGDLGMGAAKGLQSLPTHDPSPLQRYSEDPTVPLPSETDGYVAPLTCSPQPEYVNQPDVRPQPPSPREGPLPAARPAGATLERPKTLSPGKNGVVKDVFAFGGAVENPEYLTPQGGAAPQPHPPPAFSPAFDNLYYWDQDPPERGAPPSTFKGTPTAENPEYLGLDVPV

Sequence of murine IGF-1R(ECD)-C3-mFc (murine) (Q60751 31-936): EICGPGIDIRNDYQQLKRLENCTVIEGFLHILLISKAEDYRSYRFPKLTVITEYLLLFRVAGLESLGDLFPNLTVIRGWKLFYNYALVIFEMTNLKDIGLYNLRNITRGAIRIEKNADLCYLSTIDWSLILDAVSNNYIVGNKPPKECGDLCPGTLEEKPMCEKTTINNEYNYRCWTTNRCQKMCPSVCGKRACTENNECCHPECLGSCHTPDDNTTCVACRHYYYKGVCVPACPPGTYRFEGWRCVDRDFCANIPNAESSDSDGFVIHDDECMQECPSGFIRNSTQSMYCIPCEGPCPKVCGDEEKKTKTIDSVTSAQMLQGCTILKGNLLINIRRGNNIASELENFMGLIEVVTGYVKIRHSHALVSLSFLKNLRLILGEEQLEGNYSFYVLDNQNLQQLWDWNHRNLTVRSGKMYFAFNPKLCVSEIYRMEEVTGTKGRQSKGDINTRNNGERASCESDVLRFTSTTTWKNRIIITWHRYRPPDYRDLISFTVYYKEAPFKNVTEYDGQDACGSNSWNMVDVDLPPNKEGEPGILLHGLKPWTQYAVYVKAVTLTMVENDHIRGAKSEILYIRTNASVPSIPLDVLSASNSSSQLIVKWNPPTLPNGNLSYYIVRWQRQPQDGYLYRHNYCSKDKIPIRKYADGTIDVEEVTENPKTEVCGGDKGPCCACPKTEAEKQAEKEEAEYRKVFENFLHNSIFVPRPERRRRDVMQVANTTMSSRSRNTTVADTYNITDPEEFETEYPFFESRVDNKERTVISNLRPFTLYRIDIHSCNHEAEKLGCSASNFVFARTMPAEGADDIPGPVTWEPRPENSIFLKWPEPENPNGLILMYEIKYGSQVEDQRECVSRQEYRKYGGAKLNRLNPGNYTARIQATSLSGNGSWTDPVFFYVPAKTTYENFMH

Row | Molecule | Ki [1] | IGF-1 Max (%) [2] | Ki [3] | Kd [4] | IC50 (HER-2)
1 | αIR3 (antibody) | > 1000 nM | 31% | > 1000 nM | 0.33 nM | 
2 | C[C@H](Cc1ccc(O)c(O)c1)[C@@H](C)Cc1ccc(O)c(O)c1 [INSM-18, nondihydroguaiaretic acid] |  |  |  |  | 15000 nM
